Test results reported in PMC3616717.

T1: human F-box-containing DNA helicase FBH1, FLAG-tagged and biotinylated, non-ubiquitylated (human), Q8NFZ0
T1 chain: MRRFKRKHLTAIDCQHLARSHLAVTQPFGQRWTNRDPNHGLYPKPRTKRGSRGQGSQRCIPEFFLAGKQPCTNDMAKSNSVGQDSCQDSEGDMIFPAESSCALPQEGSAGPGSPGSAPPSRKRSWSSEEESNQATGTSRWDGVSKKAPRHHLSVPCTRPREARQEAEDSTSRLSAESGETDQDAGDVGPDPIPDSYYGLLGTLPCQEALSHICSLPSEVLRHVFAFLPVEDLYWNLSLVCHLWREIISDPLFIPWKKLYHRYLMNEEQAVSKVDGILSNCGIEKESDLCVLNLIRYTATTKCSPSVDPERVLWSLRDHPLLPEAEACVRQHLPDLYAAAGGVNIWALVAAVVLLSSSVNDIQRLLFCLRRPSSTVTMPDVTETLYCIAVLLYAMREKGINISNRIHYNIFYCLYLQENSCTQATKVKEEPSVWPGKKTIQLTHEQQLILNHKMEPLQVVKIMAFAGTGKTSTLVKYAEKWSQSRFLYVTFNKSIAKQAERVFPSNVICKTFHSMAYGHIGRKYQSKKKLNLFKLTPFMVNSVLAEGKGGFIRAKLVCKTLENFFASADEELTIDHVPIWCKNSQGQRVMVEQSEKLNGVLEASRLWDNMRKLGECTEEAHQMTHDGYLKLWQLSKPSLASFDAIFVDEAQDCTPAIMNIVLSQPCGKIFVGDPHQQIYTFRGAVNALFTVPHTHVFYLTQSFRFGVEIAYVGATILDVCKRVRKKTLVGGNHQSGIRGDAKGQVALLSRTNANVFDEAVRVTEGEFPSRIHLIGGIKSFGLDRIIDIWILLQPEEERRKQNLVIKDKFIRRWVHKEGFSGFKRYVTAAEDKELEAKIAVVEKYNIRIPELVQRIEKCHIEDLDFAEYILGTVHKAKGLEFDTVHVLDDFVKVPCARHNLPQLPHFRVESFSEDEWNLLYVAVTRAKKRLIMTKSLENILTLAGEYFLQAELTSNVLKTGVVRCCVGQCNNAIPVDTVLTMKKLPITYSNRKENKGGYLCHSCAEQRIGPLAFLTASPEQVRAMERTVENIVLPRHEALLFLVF


Legend:
[1] = biological target: T1, human F-box-containing DNA helicase …; assay: single-molecule TIRFM; details: remark: other sources report otherwise
RAD51 = RAD51 (UniProt Q06609 1-339); assay: single-molecule FRET

kon [1] [M⁻¹ s⁻¹] | Binder | binding result (RAD51)
2.7e+07 | human RAD51 protein, Q06609 1-339 (natural protein, here or on the partner: biotin on the underlined lysine of the BAP sequence (…)) MAMQMQLEANADTSVEEESFGPQPISRLEQCGINANDVKKLEEAGFHTVEAVAYAPKKELINIKGISEAKADKILAEAAKLVPMGFTTATEFHQRRSEIIQITTGSKELDKLLQGGIETGSITEMFGEFRTGKTQICHTLAVTCQLPIDRGGGEGKAMYIDTEGTFRPERLLAVAERYGLSGSDVLDNVAYARAFNTDHQTQLLYQASAMMVESRYALLIVDSATALYRTDYSGRGELSARQMHLARFLRMLLRLADEFGVAVVITNQVVAQVDGAAMFAADPKKPIGGNIIAHASTTRLYLRKGRGETRICKIYDSPCLPEAEAMFAINADGVGDAKD | –
– | Cy3/Cy5-labeled poly(dT)60 (oligo g) (ssDNA) DNA: TTTTTTTTTTTTTTTTTTTTTTTTTTTTTTTTTTTTTTTTTTTTTTTTTTTTTTTTTTTT | binds
